Measured values taken from paper PMC7411048, “ATP-dependent hydroxylation of an unactivated primary carbon with water” (Nature Communications, 2020).

Columns and labels:
[1] = substrate: CC(C)=CCC[C@@H](C)[C@H]1CC[C@H]2[C@@H]3CCC4=CC(=O)C=C[C@]4(C)[C@H]3CC[C@]12C; experiment: UPLC assay of DDO hydroxylation to 26-OH-DDO; type: biochemical, Sterolibacterium denitrificans; details: 5 mM K3[Fe(CN)6] as electron acceptor, 50 mM MOPS/KOH pH 7.0, 6% HPCD, 30 °C, anaerobic, enriched enzyme
[2] = substrate: C/C(=C\CC[C@@H](C)[C@H]1CC[C@H]2[C@@H]3CCC4=CC(=O)C=C[C@]4(C)[C@H]3CC[C@]12C)CO; experiment: UPLC assay of 26-OH-DDO dehydrogenation to DDO-26-al; type: biochemical, Sterolibacterium denitrificans; details: 5 mM K3[Fe(CN)6] as electron acceptor, 50 mM MOPS/KOH pH 7.0, 6% HPCD, 30 °C, anaerobic, enriched enzyme

B1: S26DH1 (desmost-1,4-dien-3-one (DDO) hydroxylase; DH5) (Sterolibacterium denitrificans) (protein)
chain: PLQHFKGTTASGRFDLGPRTTPKLGNWQDLYRQRWTWDKVAKGSHGWANCRSACEWDLYVKDGVVVREEQSATYEASEPGIPDFNPRGCQKGACYTEVMYGPSRTTVPLKRVGPRGSGKWEKISWEQALREIAVKTVDAAEKWGTDTIYQDLGPNFDFGASTAGRFKFQFMAGGIFADNWAEIGDLNVGASITVGAAHLGGSADEWFLSDFIVVWMMNPSVTQIPDAHFLYEARYNGTELCVIDPQYSATAIHADQWLPLESGTDAALGLAVARYLLDTGAIDLPYIREQTDLPLLARLDTGRFLRESDLKAGGDEDQLYMWHPQKNAAVPAPGCLKNTTRSLKLDFEPPIDGQWKIKLANGEEVVVVPVGAMLKEHLDPWTFEHAAQVTHLHIDQIRKFAEGWAKAERPMVLSSWGSNRYVHSDLMNRTKMLLLMLKGALGKKGAGYQATGWVDLDGFGNAMQMEKSGMTGRLAVMLNAMPPKELFNAIVDIIKKRKTENDVALEGENNYLRNKLCTSDVVEVNLKSEGYRAALSKEQEGLYPRELSDYYDEAHEKGWAPGLPRKNTPKIFFSGGSNLLRRNNLPQYLKAHIWDQMDCIVDVNPKYSYTGTQADYILPAAGWYEKTGIKYTMSYIPYLHYCDAAVPPLAESKGEWEIYWLLTREMENYAKEKNQPILDGCGRGTIDMKTIHQRYTNQGDLGQHDQDKVTEEILRSESTKGMTVEGLRQTGIAKYTATGKNVQATALNNPDWKGEGVLTTLTRFTVHKEPWPTYSGRISSFIDHPWFIEGHEQFATHKDSPKAGGDYPFIFVSCHARWSIHSTWRDTPMMLRLQRGEPLVYLNPTDAAKIGVKDFEYVEIYNNYGSIRMRLKVTAMVRPGVAYYYHAWEPHQFPNHESYKNLIPGIVQPLHYAGGYGHINHALNRFQPGSAVQDTRIGIKPWTGQATGVKPVVVTAEEAAIAERANQAI
notes: alpha-beta-gamma complex, Mo-cofactor/FeS/heme b; produced in Thauera aromatica K172 with delta-chaperone (SdhD, delta4); enriched by three columns; with Steroid C26 dehydrogenase 1 beta subunit (FeS electron transfer subunit); Steroid C26 dehydrogenase 1 gamma subunit (heme b subunit)
- Km [1]: 123 ± 25 µM
- Km [2]: 83 ± 12 µM
